# In patent US20250136717A1 (BYONDIS B V, published 2025):
# Read-outs that look alike come from different tables or passages of the source.
# T1: Biotinylated Human TROP2/TACSTD2 Protein, His Avitag, Cat. No. TR2-H82E5 (human, UniProt P09758 27-274, biotinylated)
# T1 construct: immobilized on SAX biosensor tips
# T1 sequence (looked up): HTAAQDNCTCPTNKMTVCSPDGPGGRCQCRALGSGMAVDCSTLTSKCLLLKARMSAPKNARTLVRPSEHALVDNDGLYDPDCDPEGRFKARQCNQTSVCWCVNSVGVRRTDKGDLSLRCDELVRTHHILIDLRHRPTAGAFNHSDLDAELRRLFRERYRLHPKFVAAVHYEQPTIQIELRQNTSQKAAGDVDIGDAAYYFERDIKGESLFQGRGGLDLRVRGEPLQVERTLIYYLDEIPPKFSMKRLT
# T2: Biotinylated Human EpCAM/TROP1 Protein, Avitag His tag, Cat. No. EPM-H82E8 (human, UniProt P16422 24-265, biotinylated)
# T2 construct: immobilized on SAX biosensor tips
# T2 sequence (looked up): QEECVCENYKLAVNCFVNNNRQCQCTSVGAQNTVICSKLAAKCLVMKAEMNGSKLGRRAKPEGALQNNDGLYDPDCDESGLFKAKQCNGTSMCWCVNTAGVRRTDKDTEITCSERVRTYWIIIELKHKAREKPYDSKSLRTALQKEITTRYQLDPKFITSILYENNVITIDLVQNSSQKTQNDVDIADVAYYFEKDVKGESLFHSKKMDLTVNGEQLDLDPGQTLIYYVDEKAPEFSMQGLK
# B1: S306 (antibody, human IgG1, kappa)
# heavy: not shown
# light: DIQLTQSPSSLSASVGDRVSITCKASQDVSIAVAWYQQKPGKAPKLLIYSASYRYTGVPDRFSGSGSGTDFTLTISSLQPEDFAVYYCQQHYITPLTFGAGTKVEIKRTVAAPSVFIFPPSDEQLKSGTASVVCLLNNFYPREAKVQWKVDNALQSGNSQESVTEQDSKDSTYSLSSTLTLSKADYEKHKVYACEVTHQGLSSPVTKSFNRGEC
# notes: also called Anti-TROP2 sacituzumab hRS7 (naked)
# B2: S307 (antibody, human IgG1, kappa)
# heavy: not shown
# light: QVQLVESGGGLVQPGGSLTLSCTASGFTLDHYDIGWFRQAPGKEREGVSCINNSDDDTYYADSVKGRFTIFMNNAKDTVYLQMNSLKPEDTAIYYCAEARGCKRGRYEYDFWGQGTQVTVSSGGGGSPLGLAGGGSDIQLTQSPSSLSASVGDRVSITCKASQDVSIAVAWYQQKPGKAPKLLIYSASYRYTGVPDRFSGSGSGTDFTLTISSLQPEDFAVYYCQQHYITPLTFGAGTKVEIKRTVAAPSVFIFPPSDEQLKSGTASVVCLLNNFYPREAKVQWKVDNALQSGNSQESVTEQDSKDSTYSLSSTLTLSKADYEKHKVYACEVTHQGLSSPVTKSFNRGEC
# notes: also called masked sacituzumab Qg-BC2T-L9-HC / BC2-Nb-L9-LC
# B3: S308 (antibody, human IgG1, kappa)
# heavy: not shown
# light: B2 light
# notes: also called masked P41C sacituzumab Qg-BC2T-L9-HC (P41C) / BC2-Nb-L9-LC
# B4: S301 (antibody, human IgG1, kappa)
# heavy: not shown
# light: QVQLVESGGGLVQPGGSLTLSCTASGFTLDHYDIGWFRQAPGKEREGVSCINNSDDDTYYADSVKGRFTIFMNNAKDTVYLQMNSLKPEDTAIYYCAEARGCKRGRYEYDFWGQGTQVTVSSGGGGSPLGLAGGGSDIVMTQSALSNPVTLGESGSISCRSSKSLLHSNGITYLYWYLQKPGQSPQLLIYQMSNRASGVPDRFSSSGSGTDFTLKISRVEAEDVGVYYCAQNLELPRTFGQGTKLEMKRTVAAPSVFIFPPSDEQLKSGTASVVCLLNNFYPREAKVQWKVDNALQSGNSQESVTEQDSKDSTYSLSSTLTLSKADYEKHKVYACEVTHQGLSSPVTKSFNRGEC
# notes: also called masked ING-1 Qg-BC2T-L9-HC / BC2-Nb-L9-LC
# B5: S302 (antibody, human IgG1, kappa)
# heavy: not shown
# light: B4 light
# notes: also called masked P41C ING-1 Qg-BC2T-L9-HC (P41C) / BC2-Nb-L9-LC
# B6: S313 (antibody)
# heavy: not shown
# light: QVQLVESGGGLVQPGGSLTLSCTASGFTLDHYDIGWFRQAPGKEREGVSCINNSDDDTYYADSVKGRFTIFMNNAKDTVYLQMNSLKPEDTAIYYCAEARGCKRGRYEYDFWGQGTQVTVSSGGGGSPLGLAGGGSDIQMTQSPPSLSASAGDRVTITCRASQGISSRLAWYQQKPEKAPKSLIYAASSLQSGVPSRFSGSGSGTDFTLTISSLQPEDFATYYCQQYNSYPYTFGQGTKLEIKRTVAAPSVFIFPPSDEQLKSGTASVVCLLNNFYPREAKVQWKVDNALQSGNSQESVTEQDSKDSTYSLSSTLTLSKADYEKHKVYACEVTHQGLSSPVTKSFNRGEC
# notes: also called masked tisotumab Qg-BC2T-L9-HC / BC2-Nb-L9-LC
# B7: S314 (antibody)
# heavy: not shown
# light: B6 light
# notes: also called masked P41C tisotumab Qg-BC2T-L9-HC (P41C) / BC2-Nb-L9-LC
# B8: S300 (antibody, human IgG1, kappa)
# heavy: not shown
# light: DIVMTQSALSNPVTLGESGSISCRSSKSLLHSNGITYLYWYLQKPGQSPQLLIYQMSNRASGVPDRFSSSGSGTDFTLKISRVEAEDVGVYYCAQNLELPRTFGQGTKLEMKRTVAAPSVFIFPPSDEQLKSGTASVVCLLNNFYPREAKVQWKVDNALQSGNSQESVTEQDSKDSTYSLSSTLTLSKADYEKHKVYACEVTHQGLSSPVTKSFNRGEC
# notes: also called Anti-EpCAM ING-1 (naked)
# B9: S303 (antibody, human IgG1, kappa)
# heavy: not shown
# light: ELQMTQSPSSLSASVGDRVTITCRTSQSISSYLNWYQQKPGQPPKLLIYWASTRESGVPDRFSGSGSGTDFTLTISSLQPEDSATYYCQQSYDIPYTFGQGTKLEIKRTVAAPSVFIFPPSDEQLKSGTASVVCLLNNFYPREAKVQWKVDNALQSGNSQESVTEQDSKDSTYSLSSTLTLSKADYEKHKVYACEVTHQGLSSPVTKSFNRGEC
# notes: also called Anti-EpCAM adecatumumab (MT-201) (naked)
# B10: S310 (antibody, human IgG1, kappa)
# heavy: not shown
# light: QVQLVESGGGLVQPGGSLTLSCTASGFTLDHYDIGWFRQAPGKEREGVSCINNSDDDTYYADSVKGRFTIFMNNAKDTVYLQMNSLKPEDTAIYYCAEARGCKRGRYEYDFWGQGTQVTVSSGGGGSPLGLAGGGSDIQMTQSPSSLSASVGDRVTITCKASQDIRKYLNWYQQKPGKAPKLLIYYATSLADGVPSRFSGSGSGTDYTFTISSLQPEDIATYYCLQHGESPYTFGQGTKLEITRTVAAPSVFIFPPSDEQLKSGTASVVCLLNNFYPREAKVQWKVDNALQSGNSQESVTEQDSKDSTYSLSSTLTLSKADYEKHKVYACEVTHQGLSSPVTKSFNRGEC
# notes: also called masked MORAb-066 Qg-BC2T-L9-HC / BC2-Nb-L9-LC
# B11: S311 (antibody, human IgG1, kappa)
# heavy: not shown
# light: B10 light
# notes: also called masked P41C MORAb-066 Qg-BC2T-L9-HC (P41C) / BC2-Nb-L9-LC
# B12: S304 (antibody, human IgG1, kappa)
# heavy: not shown
# light: QVQLVESGGGLVQPGGSLTLSCTASGFTLDHYDIGWFRQAPGKEREGVSCINNSDDDTYYADSVKGRFTIFMNNAKDTVYLQMNSLKPEDTAIYYCAEARGCKRGRYEYDFWGQGTQVTVSSGGGGSPLGLAGGGSELQMTQSPSSLSASVGDRVTITCRTSQSISSYLNWYQQKPGQPPKLLIYWASTRESGVPDRFSGSGSGTDFTLTISSLQPEDSATYYCQQSYDIPYTFGQGTKLEIKRTVAAPSVFIFPPSDEQLKSGTASVVCLLNNFYPREAKVQWKVDNALQSGNSQESVTEQDSKDSTYSLSSTLTLSKADYEKHKVYACEVTHQGLSSPVTKSFNRGEC
# notes: also called masked adecatumumab Qg-BC2T-L9-HC / BC2-Nb-L9-LC
# B13: S305 (antibody, human IgG1, kappa)
# heavy: not shown
# light: B12 light
# notes: also called masked P41C adecatumumab Qg-BC2T-L9-HC (P41C) / BC2-Nb-L9-LC
# B14: S309 (antibody, human IgG1, kappa)
# heavy: not shown
# light: DIQMTQSPSSLSASVGDRVTITCKASQDIRKYLNWYQQKPGKAPKLLIYYATSLADGVPSRFSGSGSGTDYTFTISSLQPEDIATYYCLQHGESPYTFGQGTKLEITRTVAAPSVFIFPPSDEQLKSGTASVVCLLNNFYPREAKVQWKVDNALQSGNSQESVTEQDSKDSTYSLSSTLTLSKADYEKHKVYACEVTHQGLSSPVTKSFNRGEC
# notes: also called Anti-TF MORAb-066, CNT0860 (naked)
# B15: S312 (antibody)
# heavy: not shown
# light: DIQMTQSPPSLSASAGDRVTITCRASQGISSRLAWYQQKPEKAPKSLIYAASSLQSGVPSRFSGSGSGTDFTLTISSLQPEDFATYYCQQYNSYPYTFGQGTKLEIKRTVAAPSVFIFPPSDEQLKSGTASVVCLLNNFYPREAKVQWKVDNALQSGNSQESVTEQDSKDSTYSLSSTLTLSKADYEKHKVYACEVTHQGLSSPVTKSFNRGEC
# notes: also called Anti-TF tisotumab (TF-011) (naked); parent antibody tisotumab
# Legend:
# [1] = biological target: T1, Biotinylated Human TROP2/TACSTD2 …; test: BLI, TROP2 on SAX tips
# From the text: (§1) To correct for differences in concentration between the analyte stocks, Protein A binding was estimated for the same samples.
# (§2) The 70s report point corresponds to 10s of association, since a baseline is created in the first 60 seconds.
# [2] = biological target: T1, Biotinylated Human TROP2/TACSTD2 …; test: BLI, TROP2 signal over Protein A signal
# From the text: as §1, §2
# [3] = biological target: T3, Protein A (Protein A sensor tips, Forte Bio, 18-5012) (UniProt P38507 37-327); test: BLI, Protein A tips
# T3 construct: used to correct for the concentration of the antibody samples
# From the text: as §1, §2
# [4] = biological target: T3, Protein A (Protein A sensor tips, Forte …); test: BLI, Protein A tips; remark: listed apart in the source
# From the text: as §1, §2
# [5] = biological target: T2, Biotinylated Human EpCAM/TROP1 Protein, …; test: BLI, EpCAM signal over Protein A signal
# From the text: as §1, §2
# [6] = biological target: T2, Biotinylated Human EpCAM/TROP1 Protein, …; test: BLI, EpCAM on SAX tips
# From the text: as §1, §2
# [7] = biological target: T3, Protein A (Protein A sensor tips, Forte …); test: BLI, Protein A tips; remark: listed apart in the source
# From the text: as §1
# [8] = biological target: T2, Biotinylated Human EpCAM/TROP1 Protein, …; test: BLI, EpCAM signal over Protein A signal; remark: listed apart in the source
# From the text: as §1, §2
# [9] = biological target: T2, Biotinylated Human EpCAM/TROP1 Protein, …; test: BLI, EpCAM on SAX tips; remark: listed apart in the source
# From the text: as §1, §2
# [10] = biological target: T3, Protein A (Protein A sensor tips, Forte …); test: BLI, Protein A tips; remark: listed apart in the source
# From the text: as §1, §2
# [11] = biological target: T3, Protein A (Protein A sensor tips, Forte …); test: BLI, Protein A tips; remark: listed apart in the source
# From the text: as §1
# [12] = biological target: T4, Human Coagulation Factor III/Tissue Factor Protein, His Tag, Cat. No. TF3-H52H5 (human, UniProt P13726 33-251); test: BLI, TF on Ni-NTA tips
# T4 construct: immobilized on Ni-NTA biosensor tips
# T4 sequence (P13726 33-251 limits assumed): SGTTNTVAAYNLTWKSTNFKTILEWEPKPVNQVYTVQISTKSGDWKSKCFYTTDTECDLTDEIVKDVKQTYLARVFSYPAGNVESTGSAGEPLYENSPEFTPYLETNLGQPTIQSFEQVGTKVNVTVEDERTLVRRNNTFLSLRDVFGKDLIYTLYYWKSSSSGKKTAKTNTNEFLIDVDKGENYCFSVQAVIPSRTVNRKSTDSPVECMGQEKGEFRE
# From the text: as §1
# [13] = biological target: T4, Human Coagulation Factor III/Tissue …; test: BLI, TF signal over Protein A signal
# From the text: as §1
binder,measurement,setting,value
B1,TROP2 binding after 10 s of association,[1],0.749 nm
same,TROP2/Protein A * 1000,[2],818
same,Protein A binding after 10 s of association,[3],0.915 nm
B2,TROP2 binding after 10 s of association,[1],0.0345 nm
same,TROP2/Protein A * 1000,[2],31.1
same,Protein A binding after 10 s of association,[3],1.11 nm
B3,TROP2 binding after 10 s of association,[1],0.0154 nm
same,TROP2/Protein A * 1000,[2],23.8
same,Protein A binding after 10 s of association,[3],0.646 nm
B4,Protein A binding after 10 s of association,[4],0.541 nm
same,EpCAM/Protein A * 1000,[5],137
same,EpCAM binding after 10 s of association,[6],0.074 nm
B5,Protein A binding after 10 s of association,[4],0.275 nm
same,EpCAM/Protein A * 1000,[5],129
same,EpCAM binding after 10 s of association,[6],0.0354 nm
B6,Protein A binding after 10 s of association,[7],1.73 nm
B7,Protein A binding after 10 s of association,[7],1.37 nm
B8,Protein A binding after 10 s of association,[4],0.95 nm
same,EpCAM/Protein A * 1000,[5],997
same,EpCAM binding after 10 s of association,[6],0.947 nm
B9,EpCAM/Protein A * 1000,[8],599
same,EpCAM binding after 10 s of association,[9],1.85 nm
same,Protein A binding after 10 s of association,[10],3.09 nm
B10,Protein A binding after 10 s of association,[11],0.993 nm
B11,Protein A binding after 10 s of association,[11],1.33 nm
B12,EpCAM/Protein A * 1000,[8],18.3
same,EpCAM binding after 10 s of association,[9],0.0247 nm
same,Protein A binding after 10 s of association,[10],1.35 nm
B13,EpCAM/Protein A * 1000,[8],14.5
same,EpCAM binding after 10 s of association,[9],0.0189 nm
same,Protein A binding after 10 s of association,[10],1.31 nm
B14,Protein A binding after 10 s of association,[11],1.79 nm
B15,TF binding after 10 s of association,[12],1.12 nm
same,Protein A binding after 10 s of association,[7],1.75 nm
same,TF/Protein A * 1000,[13],641
